In patent US20180155451A1 (published 2018):

B1: GpH7-B3 variant (T335_04F)/GpL16-k0 (antibody, human IgG1, kappa)
heavy: not shown
light: DIVMTQSPLSLPVTPGEPASISCQASESLVHSNRNTYLHWYLQKPGQSPQLLIYKVSNRFSGVPDRFSGSGSGTDFTLKISRVEAEDVGVYYCSQNTHVPPTFGQGTKVEIERTVAAPSVFIFPPSDEQLKSGTASVVCLLNNFYPREAKVQWKVDNALQSGNSQESVTEQDSKDSTYSLSSTLTLSKADYEKHKVYACEVTHQGLSSPVTKSFNRGEC
notes: Homodimerized; both H chains altered; also called Ho Ab T335_04F
B2: GpH7-B3 variant (Y296_12R)/GpL16-k0 (antibody, human IgG1, kappa)
heavy: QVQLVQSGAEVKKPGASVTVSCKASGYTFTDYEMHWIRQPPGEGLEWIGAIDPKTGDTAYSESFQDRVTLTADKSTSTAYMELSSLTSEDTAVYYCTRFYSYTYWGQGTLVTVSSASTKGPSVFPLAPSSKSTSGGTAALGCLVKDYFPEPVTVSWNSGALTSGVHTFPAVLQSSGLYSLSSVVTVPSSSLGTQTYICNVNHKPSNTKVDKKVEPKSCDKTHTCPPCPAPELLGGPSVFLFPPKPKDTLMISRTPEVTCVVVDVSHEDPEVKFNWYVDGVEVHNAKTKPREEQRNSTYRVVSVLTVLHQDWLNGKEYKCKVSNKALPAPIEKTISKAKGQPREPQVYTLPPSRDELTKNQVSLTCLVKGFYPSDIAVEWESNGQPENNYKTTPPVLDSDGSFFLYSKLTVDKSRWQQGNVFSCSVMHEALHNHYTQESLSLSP
light: B1 light
notes: Homodimerized; both H chains altered; also called Ho Ab Y296_12R
B3: GpH7-B3 variant (Y300_08L)/GpL16-k0 (antibody, human IgG1, kappa)
heavy: not shown
light: B1 light
notes: Homodimerized; both H chains altered; also called Ho Ab Y300_08L
B4: GpH7-B3 variant (A330_19Q)/GpL16-k0 (antibody, human IgG1, kappa)
heavy: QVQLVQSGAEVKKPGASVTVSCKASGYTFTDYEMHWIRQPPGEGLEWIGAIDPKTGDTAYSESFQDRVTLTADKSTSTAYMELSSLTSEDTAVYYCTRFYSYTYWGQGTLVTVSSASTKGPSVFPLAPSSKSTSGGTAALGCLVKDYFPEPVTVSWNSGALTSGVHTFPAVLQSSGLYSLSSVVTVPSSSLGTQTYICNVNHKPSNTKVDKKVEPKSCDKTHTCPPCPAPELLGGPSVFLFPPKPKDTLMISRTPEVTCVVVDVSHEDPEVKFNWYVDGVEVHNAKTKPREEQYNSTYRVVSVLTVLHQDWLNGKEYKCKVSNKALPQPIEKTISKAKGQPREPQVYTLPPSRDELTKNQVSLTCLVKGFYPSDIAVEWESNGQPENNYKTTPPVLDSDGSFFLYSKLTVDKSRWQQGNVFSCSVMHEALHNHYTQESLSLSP
light: B1 light
notes: Homodimerized; both H chains altered; also called Ho Ab A330_19Q
B5: GpH7-B3 variant (A330_01G)/GpL16-k0 (antibody, human IgG1, kappa)
heavy: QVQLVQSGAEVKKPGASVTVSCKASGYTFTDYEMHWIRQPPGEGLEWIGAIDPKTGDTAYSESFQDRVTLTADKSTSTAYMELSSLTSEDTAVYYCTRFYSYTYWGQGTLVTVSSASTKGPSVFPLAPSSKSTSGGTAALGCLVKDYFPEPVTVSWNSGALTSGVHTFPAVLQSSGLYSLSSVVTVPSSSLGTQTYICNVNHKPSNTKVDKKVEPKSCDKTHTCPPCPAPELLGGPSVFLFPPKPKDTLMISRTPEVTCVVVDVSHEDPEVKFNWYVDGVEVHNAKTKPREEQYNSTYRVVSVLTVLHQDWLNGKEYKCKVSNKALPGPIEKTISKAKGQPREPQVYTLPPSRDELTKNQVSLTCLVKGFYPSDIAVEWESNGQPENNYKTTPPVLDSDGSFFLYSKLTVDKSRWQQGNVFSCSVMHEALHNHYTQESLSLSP
light: B1 light
notes: Homodimerized; both H chains altered; also called Ho Ab A330_01G
B6: GpH7-B3 variant (Y300_02A)/GpL16-k0 (antibody, human IgG1, kappa)
heavy: not shown
light: B1 light
notes: Homodimerized; both H chains altered; also called Ho Ab Y300_02A
B7: GpH7-B3 variant (H268_10E)/GpL16-k0 (antibody, human IgG1, kappa)
heavy: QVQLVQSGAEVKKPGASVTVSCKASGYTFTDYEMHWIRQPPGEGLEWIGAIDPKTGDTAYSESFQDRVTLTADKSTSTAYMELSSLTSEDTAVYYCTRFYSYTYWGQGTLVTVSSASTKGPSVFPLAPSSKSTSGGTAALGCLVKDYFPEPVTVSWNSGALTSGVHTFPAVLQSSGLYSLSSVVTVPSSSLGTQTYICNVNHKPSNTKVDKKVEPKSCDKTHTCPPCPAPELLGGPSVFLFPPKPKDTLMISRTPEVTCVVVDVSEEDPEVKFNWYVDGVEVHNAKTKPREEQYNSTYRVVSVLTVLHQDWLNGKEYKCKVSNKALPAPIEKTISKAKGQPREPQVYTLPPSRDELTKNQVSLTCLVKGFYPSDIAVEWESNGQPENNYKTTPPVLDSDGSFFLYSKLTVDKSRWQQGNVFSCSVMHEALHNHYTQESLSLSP
light: B1 light
notes: Homodimerized; both H chains altered; also called Ho Ab H268_10E
B8: GpH7-B3 variant (S337_04F)/GpL16-k0 (antibody, human IgG1, kappa)
heavy: not shown
light: B1 light
notes: Homodimerized; both H chains altered; also called Ho Ab S337_04F
B9: GpH7-B3 variant (I336_09D)/GpL16-k0 (antibody, human IgG1, kappa)
heavy: not shown
light: B1 light
notes: Homodimerized; both H chains altered; also called Ho Ab I336_09D
B10: GpH7-B3 variant (T335_06M)/GpL16-k0 (antibody, human IgG1, kappa)
heavy: not shown
light: B1 light
notes: Homodimerized; both H chains altered; also called Ho Ab T335_06M
B11: GpH7-B3 variant (A330_10E)/GpL16-k0 (antibody, human IgG1, kappa)
heavy: not shown
light: B1 light
notes: Homodimerized; both H chains altered; also called Ho Ab A330_10E
B12: GpH7-B3 variant (T335_07I)/GpL16-k0 (antibody, human IgG1, kappa)
heavy: not shown
light: B1 light
notes: Homodimerized; both H chains altered; also called Ho Ab T335_07I
B13: GpH7-B3 variant (T335_09D)/GpL16-k0 (antibody, human IgG1, kappa)
heavy: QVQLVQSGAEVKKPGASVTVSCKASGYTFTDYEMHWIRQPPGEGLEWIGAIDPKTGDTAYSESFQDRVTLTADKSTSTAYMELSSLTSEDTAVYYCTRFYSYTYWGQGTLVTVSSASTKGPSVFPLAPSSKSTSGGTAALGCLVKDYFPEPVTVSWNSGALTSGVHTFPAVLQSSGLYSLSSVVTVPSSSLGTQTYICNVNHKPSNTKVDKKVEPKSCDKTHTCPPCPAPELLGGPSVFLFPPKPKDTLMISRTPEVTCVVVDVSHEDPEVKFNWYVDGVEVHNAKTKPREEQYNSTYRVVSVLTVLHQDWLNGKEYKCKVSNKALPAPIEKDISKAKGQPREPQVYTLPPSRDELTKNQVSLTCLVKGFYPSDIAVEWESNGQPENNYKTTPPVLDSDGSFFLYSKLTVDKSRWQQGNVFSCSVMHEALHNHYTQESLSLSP
light: B1 light
notes: Homodimerized; both H chains altered; also called Ho Ab T335_09D
B14: GpH7-B3 variant (H268_18N)/GpL16-k0 (antibody, human IgG1, kappa)
heavy: not shown
light: B1 light
notes: Homodimerized; both H chains altered; also called Ho Ab H268_18N
B15: GpH7-B3 variant (S337_10E)/GpL16-k0 (antibody, human IgG1, kappa)
heavy: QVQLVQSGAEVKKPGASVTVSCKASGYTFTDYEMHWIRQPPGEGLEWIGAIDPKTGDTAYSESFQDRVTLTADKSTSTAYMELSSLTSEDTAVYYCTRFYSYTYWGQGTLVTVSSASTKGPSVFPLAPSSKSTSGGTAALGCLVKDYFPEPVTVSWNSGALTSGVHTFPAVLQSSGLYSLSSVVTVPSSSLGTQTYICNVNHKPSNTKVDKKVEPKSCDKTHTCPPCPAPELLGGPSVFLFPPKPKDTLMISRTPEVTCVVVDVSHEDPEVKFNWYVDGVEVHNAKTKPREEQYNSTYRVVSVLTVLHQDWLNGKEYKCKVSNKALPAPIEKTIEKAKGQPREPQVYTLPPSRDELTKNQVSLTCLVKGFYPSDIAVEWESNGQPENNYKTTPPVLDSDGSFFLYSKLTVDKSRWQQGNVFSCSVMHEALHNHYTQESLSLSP
light: B1 light
notes: Homodimerized; both H chains altered; also called Ho Ab S337_10E
B16: GpH7-B3 variant (H268_01G)/GpL16-k0 (antibody, human IgG1, kappa)
heavy: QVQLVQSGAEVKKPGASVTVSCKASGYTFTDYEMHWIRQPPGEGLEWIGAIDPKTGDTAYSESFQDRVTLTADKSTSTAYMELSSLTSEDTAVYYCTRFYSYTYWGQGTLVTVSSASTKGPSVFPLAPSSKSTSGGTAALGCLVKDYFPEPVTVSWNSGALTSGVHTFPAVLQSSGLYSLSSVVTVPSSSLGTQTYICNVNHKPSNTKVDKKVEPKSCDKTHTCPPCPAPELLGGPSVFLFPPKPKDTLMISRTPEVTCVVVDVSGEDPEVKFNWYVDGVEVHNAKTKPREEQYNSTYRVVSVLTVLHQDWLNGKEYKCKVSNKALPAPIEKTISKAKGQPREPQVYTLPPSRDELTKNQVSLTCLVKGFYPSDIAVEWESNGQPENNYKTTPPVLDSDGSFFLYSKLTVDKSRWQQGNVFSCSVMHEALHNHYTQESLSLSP
light: B1 light
notes: Homodimerized; both H chains altered; also called Ho Ab H268_01G
B17: GpH7-B3 variant (T335_20W)/GpL16-k0 (antibody, human IgG1, kappa)
heavy: not shown
light: B1 light
notes: Homodimerized; both H chains altered; also called Ho Ab T335_20W
B18: GpH7-B3 variant (Y300_03V)/GpL16-k0 (antibody, human IgG1, kappa)
heavy: not shown
light: B1 light
notes: Homodimerized; both H chains altered; also called Ho Ab Y300_03V
B19: GpH7-B3 variant (T335_16H)/GpL16-k0 (antibody, human IgG1, kappa)
heavy: not shown
light: B1 light
notes: Homodimerized; both H chains altered; also called Ho Ab T335_16H
B20: GpH7-B3 variant (T335_08L)/GpL16-k0 (antibody, human IgG1, kappa)
heavy: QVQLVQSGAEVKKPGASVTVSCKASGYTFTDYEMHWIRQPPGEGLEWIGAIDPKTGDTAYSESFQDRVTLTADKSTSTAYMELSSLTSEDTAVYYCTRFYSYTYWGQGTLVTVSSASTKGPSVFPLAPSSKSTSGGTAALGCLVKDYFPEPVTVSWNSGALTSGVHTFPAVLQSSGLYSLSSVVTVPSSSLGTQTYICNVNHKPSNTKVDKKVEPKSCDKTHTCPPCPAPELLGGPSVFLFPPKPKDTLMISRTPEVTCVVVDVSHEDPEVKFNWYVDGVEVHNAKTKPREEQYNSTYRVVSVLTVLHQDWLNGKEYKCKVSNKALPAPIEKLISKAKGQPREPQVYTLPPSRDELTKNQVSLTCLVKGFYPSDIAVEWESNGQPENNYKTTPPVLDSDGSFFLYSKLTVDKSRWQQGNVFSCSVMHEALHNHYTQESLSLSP
light: B1 light
notes: Homodimerized; both H chains altered; also called Ho Ab T335_08L
B21: GpH7-B3 variant (A330_04F)/GpL16-k0 (antibody, human IgG1, kappa)
heavy: not shown
light: B1 light
notes: Homodimerized; both H chains altered; also called Ho Ab A330_04F
B22: GpH7-B3 variant (H268_13S)/GpL16-k0 (antibody, human IgG1, kappa)
heavy: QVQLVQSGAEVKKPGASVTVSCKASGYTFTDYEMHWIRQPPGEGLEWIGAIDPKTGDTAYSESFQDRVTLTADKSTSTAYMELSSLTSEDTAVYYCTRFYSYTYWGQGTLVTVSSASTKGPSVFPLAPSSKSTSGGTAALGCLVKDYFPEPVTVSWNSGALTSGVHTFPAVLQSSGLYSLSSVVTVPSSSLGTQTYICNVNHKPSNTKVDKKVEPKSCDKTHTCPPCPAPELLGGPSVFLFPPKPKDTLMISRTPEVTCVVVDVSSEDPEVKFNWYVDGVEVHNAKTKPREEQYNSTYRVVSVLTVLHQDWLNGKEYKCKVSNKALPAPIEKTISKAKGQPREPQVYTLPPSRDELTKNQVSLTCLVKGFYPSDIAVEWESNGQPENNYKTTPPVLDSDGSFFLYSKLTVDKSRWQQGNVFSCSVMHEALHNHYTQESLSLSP
light: B1 light
notes: Homodimerized; both H chains altered; also called Ho Ab H268_13S
B23: GpH7-B3 variant (T335_15Y)/GpL16-k0 (antibody, human IgG1, kappa)
heavy: not shown
light: B1 light
notes: Homodimerized; both H chains altered; also called Ho Ab T335_15Y
B24: GpH7-B3 variant (Y296_06M)/GpL16-k0 (antibody, human IgG1, kappa)
heavy: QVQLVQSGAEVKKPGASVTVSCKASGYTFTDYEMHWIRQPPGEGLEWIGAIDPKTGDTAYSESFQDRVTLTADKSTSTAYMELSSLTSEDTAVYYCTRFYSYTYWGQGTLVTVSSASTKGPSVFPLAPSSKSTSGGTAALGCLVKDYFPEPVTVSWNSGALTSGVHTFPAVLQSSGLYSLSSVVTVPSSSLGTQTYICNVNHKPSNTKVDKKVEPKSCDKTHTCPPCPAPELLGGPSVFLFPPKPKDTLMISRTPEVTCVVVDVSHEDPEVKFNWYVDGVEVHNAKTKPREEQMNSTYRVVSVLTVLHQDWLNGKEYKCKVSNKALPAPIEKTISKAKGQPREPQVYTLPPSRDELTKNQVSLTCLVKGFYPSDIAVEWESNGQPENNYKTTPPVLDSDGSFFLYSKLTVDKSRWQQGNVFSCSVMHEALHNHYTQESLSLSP
light: B1 light
notes: Homodimerized; both H chains altered; also called Ho Ab Y296_06M
B25: GpH7-B3 variant (S337_09D)/GpL16-k0 (antibody, human IgG1, kappa)
heavy: not shown
light: B1 light
notes: Homodimerized; both H chains altered; also called Ho Ab S337_09D

Target: T1, FcγRIa extracellular domain with C-terminal His tag (human, UniProt P12314 16-292)
T1 construct: extracellular domain; Expressed in FreeStyle293 cells; used as analyte in Biacore; also called FcgRI; 1a; not shown: His tag at the C terminus
Experiment: SPR (Biacore), captured antibody, FcγRIa analyte; relative to GpH7-B3/GpL16-k0 = 100

T1 sequence (P12314 16-292): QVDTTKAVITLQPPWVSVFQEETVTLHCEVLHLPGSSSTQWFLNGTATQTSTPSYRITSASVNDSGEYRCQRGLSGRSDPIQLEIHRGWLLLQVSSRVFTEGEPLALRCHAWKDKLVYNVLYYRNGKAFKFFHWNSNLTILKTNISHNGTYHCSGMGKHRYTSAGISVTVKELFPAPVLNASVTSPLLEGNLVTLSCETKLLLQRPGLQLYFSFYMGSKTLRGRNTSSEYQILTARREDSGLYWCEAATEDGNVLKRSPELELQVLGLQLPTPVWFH

First: B1
Second: B2
The Ho/Con_1a of the first is higher: 105 % of control for the first, 103 % of control for the second.

First: B3
Second: B4
The Ho/Con_1a of the first is higher: 109 % of control for the first, 106 % of control for the second.

Compared with B5, B6 is higher in Ho/Con_1a: 106 % of control for the first, 110 % of control for the second.

Compared with B7, B8 is lower in Ho/Con_1a: 112 % of control for the first, 105 % of control for the second.

Compared with B9, B10 is lower in Ho/Con_1a: 108 % of control for the first, 106 % of control for the second.

First: B11
Second: B12
The Ho/Con_1a of the first is higher: 108 % of control for the first, 105 % of control for the second.

Going from B13 to B14, the Ho/Con_1a rises from 107 % of control to 108 % of control.

Compared with B15, B16 is higher in Ho/Con_1a: 104 % of control for the first, 108 % of control for the second.

Compared with B17, B18 is higher in Ho/Con_1a: 104 % of control for the first, 112 % of control for the second.

First: B19
Second: B20
The Ho/Con_1a of the first is lower: 104 % of control for the first, 105 % of control for the second.

Compared with B21, B22 is higher in Ho/Con_1a: 107 % of control for the first, 110 % of control for the second.

First: B23
Second: B24
The Ho/Con_1a of the first is higher: 106 % of control for the first, 104 % of control for the second.

With B25 the Ho/Con_1a was 106 % of control.
